The values below come from patent US20260193317A1, “COMBINATION THERAPY WITH ACTRIIB RECEPTOR VARIANTS AND GLP-1 AGONISTS” (35PHARMA Inc., priority 2023, published 2026).

The target in assay [1] is T1, recombinant human activin A (human, UniProt P08476 311-426).
T1 sequence (looked up): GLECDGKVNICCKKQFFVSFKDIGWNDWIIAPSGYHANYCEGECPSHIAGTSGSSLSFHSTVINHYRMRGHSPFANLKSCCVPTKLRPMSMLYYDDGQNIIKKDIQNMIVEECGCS
Put plainly: cell-based or functional assay.

Another assay has as its target T2, activin B (UniProt P09529 293-407).
T2 sequence (looked up): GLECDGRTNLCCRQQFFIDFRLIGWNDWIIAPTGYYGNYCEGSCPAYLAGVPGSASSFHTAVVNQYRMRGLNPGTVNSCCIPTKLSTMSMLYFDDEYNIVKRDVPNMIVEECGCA
Put plainly: cell-based or functional assay.

The next assay concerns the target GDF-8 (UniProt O14793 267-375). In words: cell-based or functional assay.
For the next assay, the target named is GDF-11 (UniProt O95390 299-407). Put plainly: cell-based or functional assay.
Sequence of GDF-11 (O95390 299-407 limits assumed): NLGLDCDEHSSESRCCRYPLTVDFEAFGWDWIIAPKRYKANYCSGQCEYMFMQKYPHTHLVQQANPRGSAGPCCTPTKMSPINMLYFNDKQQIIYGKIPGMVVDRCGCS
The next assay addresses T3, BMP-9 (UniProt Q9UK05 320-429).
T3 sequence (looked up): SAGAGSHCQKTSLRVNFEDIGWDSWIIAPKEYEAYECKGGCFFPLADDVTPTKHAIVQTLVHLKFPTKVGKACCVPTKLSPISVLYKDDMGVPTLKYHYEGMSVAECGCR
Put plainly: cell-based or functional assay.

A further assay addresses T4, BMP-10 (UniProt O95393 317-424).
T4 sequence (looked up): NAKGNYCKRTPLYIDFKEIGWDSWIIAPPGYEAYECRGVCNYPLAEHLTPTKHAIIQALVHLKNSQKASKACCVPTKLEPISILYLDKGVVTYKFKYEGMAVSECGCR
In words: cell-based or functional assay.

The target of assay [2] is T1, recombinant human activin A. Put plainly: direct ELISA, activin A coated, anti-human Fc-HRP; co-formulation with semaglutide, D 0. Background: An ELISA detects its analyte on a solid surface through an enzyme-linked reagent.
Description: (§2) In each case, the following parameters were assessed: a) monomer content (size exclusion chromatography), b) activin A and GDF-8 neutralization (cell-based assays [CBAs]), c) activin A binding (ELISA), d) GLP-1 receptor binding (ELISA).
(§3) Potency testing by ELISA. […] Blocking buffer (1% BSA, 0.05% tween-20 in PBS, 300 μL/well) was added to each well and the plate was incubated for 1 hour at RT. Starting at 2.5 μg/mL, test agents were diluted in assay diluent (1% BSA, 0.05% tween-20 in PBS, 100 μL/well) and loaded on the plate for 1 h at RT.
The target is the same in assay [3]. In words: direct ELISA, activin A coated, anti-human Fc-HRP; co-formulation with semaglutide, D 7 at 2-8°C.
Description: as §2, §3
The target is the same in assay [4]. In words: direct ELISA, activin A coated, anti-human Fc-HRP; co-formulation with semaglutide, D 28 at 2-8°C.
Description: as §2, §3
The target is the same in assay [5]. Put plainly: direct ELISA, activin A coated, anti-human Fc-HRP; co-formulation with semaglutide, D 7 at room temperature.
Description: as §2, §3
Assay [6] has the same target. In words: direct ELISA, activin A coated, anti-human Fc-HRP; co-formulation with semaglutide, D 28 at room temperature.
Description: as §2, §3
Assay [7] deals with diet-induced obese (DIO) mice. Put plainly: Body composition and metabolism in diet-induced obese (DIO) mice. The assay is classed as in vivo. The protocol:
(§1) Experiments were performed to assess the effects of P1229 on body composition and metabolism in diet-induced obese (DIO) mice. DIO mice were purchased from Jackson Laboratories (#380050). Briefly, mice were fed a high-fat diet (HFD, 60% kcal from fat) from 6 weeks of age until 22 weeks of age (total of 16 weeks on the HFD). […] After 3 weeks of treatments, some animals were sacrificed and scanned by EchoMRI […] (FIGS. 11A-F), while others were sacrificed for tissue collection and RNA analysis. Animals were maintained on the HFD throughout the acclimatization and treatment periods. The murine version of bimagrumab used for these experiments comprises the heavy chain amino acid sequence of SEQ ID NO: 376 and the light chain sequence of SEQ ID NO: 377.

Assay [8] deals with follicle-stimulating hormone (FSH). Put plainly: FSH production in DIO mice. The assay is classed as in vivo. Conditions: 3 weeks of treatment. The protocol: as §1
Follicle-stimulating hormone (FSH) is a known biomarker of in vivo target engagement for activin receptor-based traps (See Attie et al. (2013). Muscle Nerve, 47: 416-423). To further validate in vivo target engagement for exemplary agents, FSH production was evaluated in DIO mice, as described above.

The subject of a further assay is DIO mice. Put plainly: Body composition in high fat diet mice, alone and in combination with incretin mimetics. The format is in vivo.

B1: P1372 (Fc fusion)
chain: ETRECIYYNANWELERTNQSGLERCEGEQDKRWHCYASWRNSSGTIELVKKGCWLDDFNCYDRQECVATEENPQVYFCCCEGNFCNERFTHLPEAGGPEVTYEPPPTGGGGSGGGGSGGGGTHTCPPCPAPELLGGPSVFLFPPKPKDTLYITREPEVTCVVVDVSHEDPEVKFNWYVDGVEVHNAKTKPREEQYNSTYRVVSVLTVLHQDWLNGKEYKCKVSNKALPAPIEKTISKAKGQPREPQVYTLPPSRDELTKNQVSLTCLVKGFYPSDIAVEWESNGQPENNYKTTPPVLDSDGSFFLYSKLTVDKSRWQQGNVFSCSVMHEALHNHYTQKSLSLSPG
notes: also tested in co-formulation with semaglutide, tirzepatide or retatrutide; also called ActRIIB ligand trap P1372
Take B1: in assay [1], the “Activin A IC50; TGFβ-reporter HEK293 cells” value worked out at 0.56 nM. The “Activin B IC50; TGFβ-reporter HEK293 cells” value in the assay with activin B was 2 nM. For the same molecule, the “GDF-8 IC50; TGFβ-reporter HEK293 cells” value with GDF-8 stood at 0.18 nM. Moreover, the “GDF-11 IC50; TGFβ-reporter HEK293 cells” value with GDF-11 was 0.53 nM. In the assay with BMP-9, the “BMP-9 IC50; BMP-reporter HepG2 cells” value was over 1000 nM. In addition, the “BMP-10 IC50; BMP-reporter HepG2 cells” value with BMP-10 was over 100 nM. Moreover, the “ELISA potency fold-change vs P1372 alone (ref = 1)” value in [2] amounted to 0.98 fold; in assay [3], 0.85 fold; in assay [4], 1.3 fold; in [5], 1.4 fold; in assay [6] it was 0.79 fold.

B2: P1307: murine version of bimagrumab, an antibody targeting ActRIIB and ActRIIA; heavy chain SEQ ID NO: 376, light chain SEQ ID NO: 377 (antibody)
heavy: MDWTWRILFLVAAATGTHAQVQLVQSGAEVKKPGASVKVSCKASGYTFTSSYINWVRQAPGQGLEWMGTINPVSGSTSYAQKFQGRVTMTRDTSISTAYMELSSLRSEDTAVYYCARGGWFDYWGQGTLVTVSSAKTTAPSVYPLAPVCGDTTGSSVTLGCLVKGYFPEPVTLTWNSGSLSSGVHTFPAVLQSDLYTLSSSVTVTSSTWPSQSITCNVAHPASSTKVDKKIEPRGPTIKPCPPCKCPAPNAAGGPSVFIFPPKIKDVLMISLSPIVTCVVVDVSEDDPDVQISWFVNNVEVHTAQTQTHREDYNSTLRVVSALPIQHQDWMSGKEFKCKVNNKDLPAPIERTISKPKGSVRAPQVYVLPPPEEEMTKKQVTLTCMVTDFMPEDIYVEWTNNGKTELNYKNTEPVLDSDGSYFMYSKLRVEKKNWVERNSYSCSVVHEGLHNHHTTKSFSRTPGK
light: MVLQTQVFISLLLWISGAYGDIALTQPASVSGSPGQSITISCTGTSSDVGSYNYVNWYQQHPGKAPKLMIYGVSKRPSGVSNRFSGSKSGNTASLTISGLQAEDEADYYCGTFAGGSYYGVFGGGTKLTVLGQPKSTPTLTVFPPSSEELKENKATLVCLISNFSPSGVTVAWKANGTPITQGVDTSNPTKEGNKFMASSFLHLTSDQWRSHNSFTCQVTHEGDTVEKSLSPAECL
Take B2: in [7], the “hepatic Ahsg expression” value was “reduced Ahsg expression”, the “hepatic Fgf21 expression” value is “reduced” and the “hepatic Inhbe expression” value is given as “significantly decreased Inhbe expression”. Further, in assay [7] (3 weeks), the “Mss51 gene expression in gastrocnemius muscle” value is “reduced Mss51 gene expression”. In addition, the “fat mass and lean mass (EchoMRI)” value in assay [7] (3 weeks s.c., P75, P1229 25 mg/kg twice weekly, P1373 5, 20, 50 mg/kg twice weekly, P1307 20 mg/kg weekly) was “promoted lean mass gain but less fat loss”. Besides, the FSH production entry in assay [8] is given as “significant decreases in FSH production”. The “Body weight (% change from baseline)” value in the assay with DIO mice (DIO mice, 21 days s.c., P1307 20 mg/kg weekly, P1229 40 mg/kg twice weekly, semaglutide 40 μg/kg daily, tirzepatide 45 μg/kg daily, alone or combined) is reported as “+5.4%”. Also, the “visceral, epididymal, pericardial, peri-renal, and retroperitoneal white adipose tissue weights” value with DIO mice (DIO mice, D21) is recorded as “not significantly affected”. Moreover, the “gastrocnemius and tibialis anterior weights” value in the assay with DIO mice (DIO mice, D21, P1229 with or without caloric restriction) was “significantly increased”. In the assay on DIO mice (as E44, NMR), the “Fat mass (% change from baseline)” value is on record as −5.7%, the “Lean mass (% change from baseline)” value is “+12.3%” and the “Lean mass/fat mass ratio” value came out at 1.4.
